Source: paper PMC5207153, “Differential Receptor Binding and Regulatory Mechanisms for the Lymphangiogenic Growth Factors Vascular Endothelial Growth Factor (VEGF)-C and -D*^([image sbox.jpg])” (The Journal of Biological Chemistry, 2016)

B1: VEGF-DΔNΔC [human] / Recombinant human VEGFR-2-Fc chimera [human] (parent complex)
chain 1: FYDIETLKVIDEEWQRTQCSPRETCVEVASELGKSTNTFFKPPCVNVFRCGGCCNEESLICMNTSTSYISKQLFEISVPLTSVPELVPVKVANHTGCKCLPTAPRHPYS
chain 2: ASVGLPSVSLDLPRLSIQKDILTIKANTTLQITCRGQRDLDWLWPNNQSGSEQRVEVTECSDGLFCKTLTIPKVIGNDTGAYKCFYRETDLASVIYVYVQDYRSPFIASVSDQHGVVYITENKNKTVVIPCLGSISNLNVSLCARYPEKRFVPDGNRISWDSKKGFTIPSYMISYAGMVFCEAKINDESYQSIMYIVVVVGYRIYDVVLSPSHGIELSVGEKLVLNCTARTELNVGIDFNWEYPSSKHQHKKLVNRDLKTQSGSEMKKFLSTLTIDGVTRSDQGLYTCAASSGLMTKKNSTFVRVHEKPFVAFGSGMESLVEATVGERVRIPAKYLGYPPPEIKWYKNGIPLESNHTIKAGHVLTIMEVSERDTGNYTVILTNPISKEKQSHVVSLVVYVPPQIGEKSLISPVDSYQYGTTQTLTCTVYAIPPPHHIHWYWQLEEECANEPSQAVSVTNPYPCEEWRSVEDFQGGNKIEVNKNQFALIEGKNKTVSTLVIQAANVSALYKCEAVNKVGRGERVISFHVTRGPEITLQPDMQPTEQESVSLWCTADRSTFENLTWYKLGPQPLPIHVGELPTPVCKNLDTLWKLNATMFSNSTNDILIMELKNASLQDQGDYVCLAQDRKTKKRHCVVRQLTVLERVAPTITGNLENQTTSIGESIEVSCTASGNPPPQIMWFKDNETLVEDSGIVLKDGNRNLTIRRVRKEDEGLYTCQACSVLGCAKVEAFFIIEGAQEKTNLE
B2: VEGF-DΔNΔC [human] / Recombinant human VEGFR-3-Fc chimera [human] (parent complex)
chain 1: B1 chain 1
chain 2: YSMTPPTLNITEESHVIDTGDSLSISCRGQHPLEWAWPGAQEAPATGDKDSEDTGVVRDCEGTDARPYCKVLLLHEVHANDTGSYVCYYKYIKARIEGTTAASSYVFVRDFEQPFINKPDTLLVNRKDAMWVPCLVSIPGLNVTLRSQSSVLWPDGQEVVWDDRRGMLVSTPLLHDALYLQCETTWGDQDFLSNPFLVHITGNELYDIQLLPRKSLELLVGEKLVLNCTVWAEFNSGVTFDWDYPGKQAERGKWVPERRSQQTHTELSSILTIHNVSQHDLGSYVCKANNGIQRFRESTEVIVHENPFISVEWLKGPILEATAGDELVKLPVKLAAYPPPEFQWYKDGKALSGRHSPHALVLKEVTEASTGTYTLALWNSAAGLRRNISLELVVNVPPQIHEKEASSPSIYSRHSRQALTCTAYGVPLPLSIQWHWRPWTPCKMFAQRSLRRRQQQDLMPQCRDWRAVTTQDAVNPIESLDTWTEFVEGKNKTVSKLVIQNANVSAMYKCVVSNKVGQDERLIYFYVTTIPDGFTIESKPSEELLEGQPVLLSCQADSYKYEHLRWYRLNLSTLHDAHGNPLLLDCKNVHLFATPLAASLEEVAPGARHATLSLSIPRVAPEHEGHYVCEVQDRRSHDKHCHKKYLSVQALEAPRLTQNLTDLLVNVSDSLEMQCLVAGAHAPSIVWYKDERLLEEKSGVDLADSNQKLSIQRVREEDAGRYLCSVCNAKGCVNSSASVAVEGSEDKGSME

Variants of: B1
Assay: ELISA; The same amount of each VEGF-DΔNΔC variant was used; assays conducted three times; parent: 100; read off a plot

| Variant | percent of parent |
| --- | --- |
| chain 1 FYDIETLKVIDEEWQATQCSPRETCVEVASELGKSTNTFFKPPCVNVFRCGGCCNEESLICMNTSTSYISKQLFEISVPLTSVPELVPVKVANHTGCKCLPTAPRHPYS [chain 1 R16A] | ~110% |
| chain 1 FYDAETLKVIDEEWQRTQCSPRETCVEVASELGKSTNTFFKPPCVNVFRCGGCCNEESLICMNTSTSYISKQLFEISVPLTSVPELVPVKVANHTGCKCLPTAPRHPYS [chain 1 I4A] | ~100% |
| chain 1 FYDIEALKVIDEEWQRTQCSPRETCVEVASELGKSTNTFFKPPCVNVFRCGGCCNEESLICMNTSTSYISKQLFEISVPLTSVPELVPVKVANHTGCKCLPTAPRHPYS [chain 1 T6A] | ~100% |
| chain 1 FYDIETLKVIDEEWARTQCSPRETCVEVASELGKSTNTFFKPPCVNVFRCGGCCNEESLICMNTSTSYISKQLFEISVPLTSVPELVPVKVANHTGCKCLPTAPRHPYS [chain 1 Q15A] | ~110% |
| chain 1 FYDIETLKVIDEEAQRTQCSPRETCVEVASELGKSTNTFFKPPCVNVFRCGGCCNEESLICMNTSTSYISKQLFEISVPLTSVPELVPVKVANHTGCKCLPTAPRHPYS [chain 1 W14A] | ~62% |
| chain 1 FYDIATLKVIDEEWQRTQCSPRETCVEVASELGKSTNTFFKPPCVNVFRCGGCCNEESLICMNTSTSYISKQLFEISVPLTSVPELVPVKVANHTGCKCLPTAPRHPYS [chain 1 E5A] | ~99% |
| chain 1 FADIETLKVIDEEWQRTQCSPRETCVEVASELGKSTNTFFKPPCVNVFRCGGCCNEESLICMNTSTSYISKQLFEISVPLTSVPELVPVKVANHTGCKCLPTAPRHPYS [chain 1 Y2A] | ~86% |
| chain 1 FYAIETLKVIDEEWQRTQCSPRETCVEVASELGKSTNTFFKPPCVNVFRCGGCCNEESLICMNTSTSYISKQLFEISVPLTSVPELVPVKVANHTGCKCLPTAPRHPYS [chain 1 D3A] | ~95% |
| chain 1 FYDIETLKAIDEEWQRTQCSPRETCVEVASELGKSTNTFFKPPCVNVFRCGGCCNEESLICMNTSTSYISKQLFEISVPLTSVPELVPVKVANHTGCKCLPTAPRHPYS [chain 1 V9A] | ~110% |
| chain 1 FYDIETAKVIDEEWQRTQCSPRETCVEVASELGKSTNTFFKPPCVNVFRCGGCCNEESLICMNTSTSYISKQLFEISVPLTSVPELVPVKVANHTGCKCLPTAPRHPYS [chain 1 L7A] | ~19% |

More lines, now with the values ahead:

| percent of parent | Variant |
| --- | --- |
| ~89% | chain 1 AYDIETLKVIDEEWQRTQCSPRETCVEVASELGKSTNTFFKPPCVNVFRCGGCCNEESLICMNTSTSYISKQLFEISVPLTSVPELVPVKVANHTGCKCLPTAPRHPYS [chain 1 F1A] |
| ~88% | chain 1 FYDIETLAVIDEEWQRTQCSPRETCVEVASELGKSTNTFFKPPCVNVFRCGGCCNEESLICMNTSTSYISKQLFEISVPLTSVPELVPVKVANHTGCKCLPTAPRHPYS [chain 1 K8A] |
| ~20% | chain 1 FYDIETLKVADEEWQRTQCSPRETCVEVASELGKSTNTFFKPPCVNVFRCGGCCNEESLICMNTSTSYISKQLFEISVPLTSVPELVPVKVANHTGCKCLPTAPRHPYS [chain 1 I10A] |
| ~14% | chain 1 FYDIETLKVIDEAWQRTQCSPRETCVEVASELGKSTNTFFKPPCVNVFRCGGCCNEESLICMNTSTSYISKQLFEISVPLTSVPELVPVKVANHTGCKCLPTAPRHPYS [chain 1 E13A] |
| ~100% | chain 1 FYDIETLKVIAEEWQRTQCSPRETCVEVASELGKSTNTFFKPPCVNVFRCGGCCNEESLICMNTSTSYISKQLFEISVPLTSVPELVPVKVANHTGCKCLPTAPRHPYS [chain 1 D11A] |
| ~100% | chain 1 FYDIETLKVIDAEWQRTQCSPRETCVEVASELGKSTNTFFKPPCVNVFRCGGCCNEESLICMNTSTSYISKQLFEISVPLTSVPELVPVKVANHTGCKCLPTAPRHPYS [chain 1 E12A] |

Variants of: B2
Assay: as above

| Variant | percent of parent |
| --- | --- |
| chain 1 FYDIETAKVIDEEWQRTQCSPRETCVEVASELGKSTNTFFKPPCVNVFRCGGCCNEESLICMNTSTSYISKQLFEISVPLTSVPELVPVKVANHTGCKCLPTAPRHPYS [chain 1 L7A] | ~3% |
| chain 1 FYDIETLKVIDAEWQRTQCSPRETCVEVASELGKSTNTFFKPPCVNVFRCGGCCNEESLICMNTSTSYISKQLFEISVPLTSVPELVPVKVANHTGCKCLPTAPRHPYS [chain 1 E12A] | ~100% |
| chain 1 FYDAETLKVIDEEWQRTQCSPRETCVEVASELGKSTNTFFKPPCVNVFRCGGCCNEESLICMNTSTSYISKQLFEISVPLTSVPELVPVKVANHTGCKCLPTAPRHPYS [chain 1 I4A] | ~99% |
| chain 1 FYAIETLKVIDEEWQRTQCSPRETCVEVASELGKSTNTFFKPPCVNVFRCGGCCNEESLICMNTSTSYISKQLFEISVPLTSVPELVPVKVANHTGCKCLPTAPRHPYS [chain 1 D3A] | ~96% |
| chain 1 FYDIATLKVIDEEWQRTQCSPRETCVEVASELGKSTNTFFKPPCVNVFRCGGCCNEESLICMNTSTSYISKQLFEISVPLTSVPELVPVKVANHTGCKCLPTAPRHPYS [chain 1 E5A] | ~99% |
| chain 1 FYDIETLKVIDEAWQRTQCSPRETCVEVASELGKSTNTFFKPPCVNVFRCGGCCNEESLICMNTSTSYISKQLFEISVPLTSVPELVPVKVANHTGCKCLPTAPRHPYS [chain 1 E13A] | ~13% |
| chain 1 FYDIETLKVIDEEWARTQCSPRETCVEVASELGKSTNTFFKPPCVNVFRCGGCCNEESLICMNTSTSYISKQLFEISVPLTSVPELVPVKVANHTGCKCLPTAPRHPYS [chain 1 Q15A] | ~110% |
| chain 1 AYDIETLKVIDEEWQRTQCSPRETCVEVASELGKSTNTFFKPPCVNVFRCGGCCNEESLICMNTSTSYISKQLFEISVPLTSVPELVPVKVANHTGCKCLPTAPRHPYS [chain 1 F1A] | ~72% |
| chain 1 FYDIETLKVADEEWQRTQCSPRETCVEVASELGKSTNTFFKPPCVNVFRCGGCCNEESLICMNTSTSYISKQLFEISVPLTSVPELVPVKVANHTGCKCLPTAPRHPYS [chain 1 I10A] | ~9% |
| chain 1 FYDIETLAVIDEEWQRTQCSPRETCVEVASELGKSTNTFFKPPCVNVFRCGGCCNEESLICMNTSTSYISKQLFEISVPLTSVPELVPVKVANHTGCKCLPTAPRHPYS [chain 1 K8A] | ~87% |
| chain 1 FYDIETLKVIDEEAQRTQCSPRETCVEVASELGKSTNTFFKPPCVNVFRCGGCCNEESLICMNTSTSYISKQLFEISVPLTSVPELVPVKVANHTGCKCLPTAPRHPYS [chain 1 W14A] | ~72% |

Continued, values first:

| percent of parent | Variant |
| --- | --- |
| ~100% | chain 1 FYDIETLKAIDEEWQRTQCSPRETCVEVASELGKSTNTFFKPPCVNVFRCGGCCNEESLICMNTSTSYISKQLFEISVPLTSVPELVPVKVANHTGCKCLPTAPRHPYS [chain 1 V9A] |
| ~23% | chain 1 FADIETLKVIDEEWQRTQCSPRETCVEVASELGKSTNTFFKPPCVNVFRCGGCCNEESLICMNTSTSYISKQLFEISVPLTSVPELVPVKVANHTGCKCLPTAPRHPYS [chain 1 Y2A] |
| ~160% | chain 1 FYDIETLKVIAEEWQRTQCSPRETCVEVASELGKSTNTFFKPPCVNVFRCGGCCNEESLICMNTSTSYISKQLFEISVPLTSVPELVPVKVANHTGCKCLPTAPRHPYS [chain 1 D11A] |
| ~97% | chain 1 FYDIEALKVIDEEWQRTQCSPRETCVEVASELGKSTNTFFKPPCVNVFRCGGCCNEESLICMNTSTSYISKQLFEISVPLTSVPELVPVKVANHTGCKCLPTAPRHPYS [chain 1 T6A] |
| ~100% | chain 1 FYDIETLKVIDEEWQATQCSPRETCVEVASELGKSTNTFFKPPCVNVFRCGGCCNEESLICMNTSTSYISKQLFEISVPLTSVPELVPVKVANHTGCKCLPTAPRHPYS [chain 1 R16A] |
